# Results published in the DeepSol protein solubility set.
# Assay: soluble on expression in E. coli; label from the status in PepcDB or PDB records
row,Sequence,soluble on expression in E. coli
1,MNTYVAEIGEIVRSQRRDEEYIEDITERLSRVSKELLGQRTWIRWFPYLKSIASTLYYTSTVVLGNQTLGEEYVHLFESNGLERTVPSIPSRISFVLLHSAFPLISNYLIQKAESTLTHPSTESFLGIPIRKNQKARQSFLDVFFWLRTKLFPQLQRAHIALFYITGAYYSIARRFTGIRFLSASAHSDIPALKVYRFLGYITLIQLAVSIGISLYSFLEQEKFNNKLKKEKKENNGGSDRNLDENSLFHPTFQCSICLENKNPSALFCGHLFCWTCIQEHAVAATSSASTSSARCPQCRLEFQPRDPNNLRLLSTSTHPTIYFTGIQPTGIPHLGNFFGSIEPWTELQNSVDKNILMMLSVVDQHAISLGPLPANELRQNTHQMTASLIACGVDPNRTLLFRQSDVPQIAQISWILGSLQTTSKLARLPQYKEKKERFKKGDIPVGLLTYPLLQAADVLTFKATTVPVGEDQSQHLNLLGGLAYAFNKTYETEIFPIPKQLTRESHARIRSLREPEKKMSKSSGGPRSRIEITDSRSTIIEKCQKAQSDNAGKVTYDKENRLAVSNLLDLYSAVTKTQTSEIDFSNWTTLDLKMNLAEAVDKRLAPIRQKFEELQNTGEVDKVLTENGEKAREIAEKNLEEIRRTIGFL,not soluble
2,MAHHHHHHMDKQAERGQSAGPVKTPQGTQPPAHNYTYHTNAAQRAVYDYLKNVKPIPELAEPKTYKTYEEASVEAVLYPIIEKHQVIMVAGAFFGDEGKGKTVNAVANHPGCTFIARVNSGENAGHTVYDDAGRKFVFNLAPSGLLSKGKRNYVGPECVMDPISFMENEVKQLIEANVPYKEQLFIGNVSIVTPYHKLLDLLASAPNSSTLKGMAPIHASKVTKRGIRLDHIFNDQSVLRSRLRKDIDTYFGFLKVKGLSDADVLRRCEKENGDGVVRVPPYVVEFVQAEDKVEYLVKLYMDRVRNNKNFPARCDVAHELRSALSRGEKVMLEGPQSYWLSNAREKFWESTTSADTTASGLLATAQYNFQLYSSVVINVHKAPGSSRVGVGANPSSFVAQDYFSATGVKTLRDLPENMCVDFDSIQKLFFTKAFHPETKEYNGIWEPLEFEDSTGKYNIGVAMAVASSRQHGECGAVTKKPRVCGFFDCVLQYEVNAVQGPYLSISALDRGDDYDKLGVTIAYVYYNGKNDEVLNINGREYKNGDIIKAGEAVPGEVALYYCHPIVKLINGWKQTPIAASKRKPGDPLPRGVCEFLSTVEYFTKAKIISIGNGPRGKDIIYIKQ,not soluble
3,MTEKTTVKTLKDVVVRFCGDSGDGMQLTGTIFSDLSAVFGNTISTFPDYPAEIRAPQGTLGGVSGFQVHIGTDLVRTPGDLADVLVAMNPAALKVNRTHVRRDSIIIIDSDSFMASDLEKAEIASEDFMTELGLTTQELFTVPISSMVKKSTAEFGLDVKAALRCKNMFALGLVCWLFDRPTQHAIDYLNRKFGKKEAILNANIKALADGFNYGHNTHATATTYRIEGRKQTPGVYMDISGNKATAYGLVAAAEHANLNL,soluble
4,MAHHHHHHMVVPVMNMTREPAVDSPENSRKISLAGYPEVAGLFCVTVFKSTLDLEVRDCCGLLTLDGVGKCVELKKFSISNCGMLTNISDLKDCVNLEMLTLSGCKTLRNLTPLKGHRTLSCITISHCERMMELDLEGATNLMQLNISDCEELKDVHVSRCTRLEVIDIHDCVKLEKLHGLTYLRELKTLILAGNRELSAVEGINELINRVEKLSLKNCEKLEDLKFLDFCNFLKEVVVAGSNVTEEKKQELRGKGVRIVNEVKVADG,not soluble
5,MYAFVRFLEDNVCYALPVSCVRDFSPRSRLDFDNQKVYAVYRGPEELGAGPESPPRAPRDWGALLLHKAQILALAEDKSDLENSVMQKKIKIPKLSLNHVEEDGEVKDYGEEDLQLRHIKRPEGRKPSEVAHKSIEAVVARLEKQNGLSLGHSTCPEEVFVEASPGTEDMDSLEDAVVPRALYEELLRNYQQQQEEMRHLQQELERTRRQLVQQAKKLKEYGALVSEMKELRDLNRRLQDVLLLRLGSGPAIDLEKVKSECLEPEPELRSTFSEEANTSSYYPAPAPVMDKYILDNGKVHLGSGIWVDEEKWHQLQVTQGDSKYTKNLAVMIWGTDVLKNRSVTGVATKKKKDAVPKPPLSPHKLSIVRECLYDRIAQETVDETEIAQRLSKVNKYICEKIMDINKSCKNEERREAKYNLQ,soluble
6,MMEDVGKEMSKIIQKRDINERYEELVNEVLKDQDVQAFIQANRERLTDEDIRKSYAKLYEFVQEKKKFQVNDPAMIAPGYEPRLMLNFHYIDVTYVPTADLIARQKEEEIRNRVRAMDMPKDVREANLRDFDPSSQGRAKALAEAMQFLREYPATPKEFHKGLYLQGPFGVGKSFLLGAMANALAERGFTTTIVHFPTFTVEMKQAIGRDQVGEKLDAVKKSPILMIDDIGAESMTSWIRDDVLSVILQYRMQEQLVTFFSSNLDLKALEEHLTVTQRGEQEPLKARRIMERVRYLSKEITMTGNDRRNG,not soluble
7,MLRNLILITLLVASGHGQTPVIGGTCKLGTADVQIGGKQTQFFLKCETTADSAEGEGVWVVKSRAAAAPSSVPSVPAENTQPQQHPKARKPASPNICEQDNGARESEVCAVSATCLQAHNDFPSSYLQCDQTTLRWVRKSCQENFLFNFEQQTCIVPKRMSSLSRQQASGLVCTFSSCSNSNPCSVGTCNNGYCCSSGSNSGSAIIVGGGSSNCVGCQNAPQIITIPQNSCPGGGYSVGGCSSGYCATGYSCIQNQCCPSYNSAPRISVYTCPSGGNAVGACMSGRCASGYTCSNNVCCPQTTTTNPFVCPDGTQAAGGCVNGQCGTGYTCSNGLCCAGTSTTVKCLDGSDAVGACIPSCTGDGCGGVQVSYYCGSGYTCTTGNICCPINSCPNGGEVLGPTINGLCPTGYTVQGNLCCSATCTDGSTGLPSVNGVCIDGYSLTNGVCCPASVTCTDEISIGPCTGTGFNGGCPAGYACDSNQVNCCPVVRYTDESCQVGPAIDGLCPPGYVVVYIPNSPLITNGVNPGTCIDLQCTTGLCLTANQIGDCDTATDAGTCPTGYTCFTNAGICCSTTTFSRLRIGNSRQMAQKPNYGRPLHSYMPPPRPIGARCQLDGECVGQAEGLSMCHAGVCQCSPIAYTQGIACVRRKSFQMNDDPVIDAANDDKSSSSVSV,not soluble
8,MSLKYDYVIIGNSAGGIGCVEAIRELDVDSSILVISAEKYHAYSRALIPYYLDGKIEFEKMYYRPPDFYEKMDVETKLGVRAVGVDVEAKKVLLESGEEVEYGKLLIATGGKPFIPPMEGLGGQSNVFTFLKMDDVLAVEKAIKEAKKAVVLGGGIIGLMASEVLAKKGLDVKVVELADRVLAPVVDETTSRIVERKFEENGVEIILNNTISKVVGEERVEKVILRDGRELEADMLLVAVGVVPNVDIVKNTPIKVNRGIVVNRKMETSVKDVYACGDCAEIYDFVFGANRVLPLWPTAYTGGRIAGFNMVGIEREYNLATSMNAMHFFDYYIINAGLNVPNDSEEFEVIYRLEGDSYRKFALKDGRIAGFIIAGKMERAGIFLKLMEEGIDVSSFKEKLLKDNFGFLDIPEPTRWKLIEDKIKLGVVREIEGHHHHHH,soluble
9,MSLTTELGRVLVTGGAGFVGANLVTTLLDRGHWVRSFDRAPSLLPAHPQLEVLQGDITDADVCAAAVDGIDTIFHTAAIIELMGGASVTDEYRQRSFAVNVGGTENLLHAGQRAGVQRFVYTSSNSVVMGGQNIAGGDETLPYTDRFNDLYTETKVVAERFVLAQNGVDGMLTCAIRPSGIWGNGDQTMFRKLFESVLKGHVKVLVGRKSARLDNSYVHNLIHGFILAAAHLVPDGTAPGQAYFINDAEPINMFEFARPVLEACGQRWPKMRISGPAVRWVMTGWQRLHFRFGFPAPLLEPLAVERLYLDNYFSIAKARRDLGYEPLFTTQQALTECLPYYVSLFEQMKNEARAEKTAATVKEGHHHHHH,soluble
10,MGSSHHHHHHSSGLVPRGSHMETLCQRLNVCQDKILTHYENDSTDLRDHIDYWKHMRLECAIYYKAREMGFKHINHQVVPTLAVSKNKALQAIELQLTLETIYNSQYSNEKWTLQDVSLEVYLTAPTGCIKKHGYTVEVQFDGDICNTMHYTNWTHIYICEEASVTVVEGQVDYYGLYYVHEGIRTYFVQFKDDAEKYSKNKVWEVHAGGQVILCPTSVFS,soluble
11,MLVIKGVKAYTMSNIGVVEKANIIVKDGKIVDVTQELPPLEGKTVVDGEGLIALPGLIDPHTHLGVYSLEWEYGDHGTEKSDPITPHFKVIDGLDIFDPGFKDAIAGGVTTVSVEPGAPLSWASYEKTTIMPGQSAILKTNGRIIKEEAGIKIAVGGHVRKFLEELKLTPTTRMGIFAMIRMILHKAKEYLEKEDKQYDPKLEALATLLKNETVARVHAHLSRDMLSIIRLLKEFDIKNIIIEHGTEAYKISDVLKENGIPVILGPVIFPRRGVELRELSSKLAFQLYNSGMMFALTTDHPALPIQYLTLVAAACVGEGLPYEEALKSITINPAKILGIDRFVGSLEPGKDADIVLFDGDPLNPESKVMYTIIDGEVVYER,soluble
12,PKKDWLSYVVSSKARNKIKQQLRLQMESSIGVVKELLNRRLKNRKLPFEEAVFTRVVRRKGFKHLTDFYMEIAADRLDVQEVLELYSHELEEE,not soluble
13,PPHVKYIKEKEICDYEPSSDAGHFRWYPKGKLIRDLLSDYVYNLVVENGGMPVETPVMYDLQNNAIREHADKFGERQYRFKQGNKDLMLRFAACFGQFMMKKDMYLLPKHMPLKLYELSTYSFRYEQRGELVGLKRLRAFTMPDMHTVCIDMKQAMEAFEDQLWMGLKTGDDFKTPYAIIFRFTEDFFEENKEWFFGMAKEYKQKYGKDAILEILPGRKHYWVGKVDMAVVDSFGRPIENPTVQIDVESAERFGIVVHDGDKKVQPIILHCSPTGSVERVLCGLLEN,not soluble
14,MADTFFFTPSRRLTVANVAELTGAKLLNPEFSNTVINTLSSLESAGKGSLVFVEHRKFSDALVGSSAVAVFCTNEIVFKVPESMAILVTSTPQRDFAQIGRILFPDSVKPMPWFGQREISPHAHIHPSAKLAGDVCIEAGAVIGRNVEIGSGSLIASTAVIGENCRIGCDCYIAPKVTVQYSLIGDKVHLYPGACIGQDGFGYIGGASGIEKVPQLGRVIIEDGVEIGANTTIDRGTFEDTIIGEGSKIDNLVQIAHNVKIGRYCLIAAQCGIAGSTSIGDMSQLGGSVGVADHIVIGKYVQIAAGSGVMNDIPDGEKWGGSPARPFKQWFREVAALRSIGKVKKEKR,not soluble
15,MGSDKIHHHHHHMERHTVNEIEIFTIPFDKARTISCAFLIKKGSAHEPEELAGISHFIEHMAFRGTKSYDHFSLKYTVEVVGGTLNAFTDKLATAYYAKVPEFHFGKTLNVLKEITFYPIFSPEDTEIERKIILEEYKMSQDDPTSKLFDTLVETVWPGPYGRPIIGRKETIEKISSEDLREYHRKNYNLPDTKIILAGKVNDDYLSLLEKELSELERNKPGDPLPPPPSFEHTEPRYIVRNDLEQVHIAMARPICGRISEDIYPLYALNTALGSGMSSILFHEIREKEGFVYDVFSQIYALKETGIIIVYAALSPEKIDEFFSKMKDVLSNESLFMKNFEYGKMRYLGKLDMVTDNPAGMMSFVIDDLSNDSLETIEERVERIKNVSKEDYRRAYERFIAGNWSVFGIGPESGKIIEKHEMIV,not soluble
16,GMNQSIIFTEQLTWDVQLSAIHFTAQQQGMVIDCYIGQKVLEHLAAEKINNSEQALSLFEQFRFDIEEQAEKLIEQEAFDVQGHIQVERVD,soluble
17,MHHHHHHSSGVDLGTENLYFQSMEESGATFHTYLNHLIQGLQKEAKEKFKGWVTCSSTDNTDLAFKKVGDGNPLKLWKASVEVEAPPSVVLNRVLRERHLWDEDFVQWKVVETLDRQTEIYQYVLNSMAPHPSRDFVVLRTWKTDLPKGMCTLVSLSVEHEEAQLLGGVRAVVMDSQYLIEPCGSGKSRLTHICRIDLKGHSPEWYSKGFGHLCAAEVARIRNSFQPLIAEGPETKI,soluble
18,IQQHSTDIETPTGTMRTYVYRPQASGKFPTIIFYSEIFQQTAPIARTAALMAGHGFVVLVPEVFHELNPIGTVLGYDDAGKDKGNQDKWAKPLEHHDSDTQALVNFIQQQDYCSGKIGTMGVCIGGHLAYRAALNKSVLAAACLYATDIHSGDLPSAEGNDSLTRTKDISAELMMIWGKQDPHIPDEGRMMIHKNLIASGNLFSWHEFNASHAFMRDEGERYDPQLALRVYGMSVELFNRTL,not soluble
